Laboratory results: patent publication US12269859B2, “Synthetic immune receptors and methods of use thereof” (Angeles Therapeutics, Inc., priority 2016, dated 2025)

Tested on: target antigen-expressing cell line
Experiment: Jurkat NFAT-GFP assay, coculture with target cell lines expressing the respective target antigen (summary Table 10A)
Format: cell-based, human
Set-up: key: The signs +/−, +, 2+ etc. after the name of the cell lines indicate the relative degree of positivity on the Jurkat-NFAT-GFP assay as measured by the % GFP positive cells; +: relative degree of positivity on the Jurkat-NFAT-GFP assay as measured by the % GFP positive cells; 2+: relative degree of positivity on the Jurkat-NFAT-GFP assay as measured by the % GFP positive cells
Details: relative % GFP positive cells; for NFAT-GFP ASSAY Positive Cell lines: NALM6: SIR-expressing Jurkat-NFAT-GFP cells cocultured with NALM6
Summary of the method: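 Read-out: % GFP+ cells by FACS. SIR-transduced, puromycin-selected Jurkat NFAT-GFP (IL-2 promoter reporter) cocultured ~4–18 h with target line, E:T ~1:2; parental cells as control; graded +/−, +, 2+ relative to parental.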

Row | Molecule | NFAT-GFP ASSAY Positive Cell lines: NALM6 | NFAT-GFP ASSAY Positive Cell lines: L363 (SIR-expressing Jurkat-NFAT-GFP cells cocultured with L363) | NFAT-GFP ASSAY Positive Cell lines: U266 (SIR-expressing Jurkat-NFAT-GFP cells cocultured with U266) | NFAT-GFP ASSAY Positive Cell lines: RAJI (SIR-expressing Jurkat-NFAT-GFP cells cocultured with RAJI)
1 | 022817-L08 (protein) MALPVTALLLPLALLLHAARPDIVMTQSPATLSLSPGERATLSCRSSKSLQNVNGNTYLYWFQQKPGQSPQLLIYRMSNLNSGVPDRFSGSGSGTEFTLTISSLEPEDFAVYYCMQHLEYPITFGAGTKLEIKLEEQKLISEEDLGSGEDLKNVFPPEVAVFEPSKAEIAHTQKATLVCLATGFYPDHVELSWWVNGKEVHSGVCTDPQPLKEQPALNDSRYCLSSRLRVSATFWQNPRNHFRCQVQFYGLSENDEWTQDRAKPVTQIVSAEAWGRADCGITSASYHQGVLSATILYEILLGKATLYAVLVSALVLMAMVKRKDSRGRAKRSGSGATNFSLLKQAGDVEENPGPTSMDWIWRILFLVGAATGAHSFEEVQLVESGGGLVKPGGSLKLSCAASGYTFTSYVMHWVRQAPGKGLEWIGYINPYNDGTKYNEKFQGRVTISSDKSISTAYMELSSLRSEDTAMYYCARGTYYYGTRVFDYWGQGTLVTVSSTREQKLISEEDLGSGIQNPDPAVYQLRDSKSSDKSVCLFTDFDSQTNVSQSKDSDVYITDKCVLDMRSMDFKSNSAVAWSNKSDFACANAFNNSIIPEDTFFPSSDVPCDVKLVEKSFETDTNLNFQNLSVIGFRILLLKVAGFNLLMTLRLWSSRAKRSGSGVKQTLNFDLLKLAGDVESNPGPSRGHMTEYKPTVRLATRDDVPRAVRTLAAAFADYPATRHTVDPDRHIERVTELQELFLTRVGLDIGKVWVADDGAAVAVWTTPESVEAGAVFAEIGPRMAELSGSRLAAQQQMEGLLAPHRPKEPAWFLATVGVSPDHQGKGLGSAVVLPGVEAAERAGVPAFLETSAPRNLPFYERLGFTVTADVEVPEGPRTWCMTRKPGA | (2+) | – | – | –
2 | 041416-U01 (protein, Polynucleotide encoding a Synthetic Immune Receptor (SIR)) MALPVTALLLPLALLLHAARPDIVLTQSPATLSLSPGDRATISCRASESVTILGSHLIYWYQQKPGQPPRLLIQLASNVQTGVPARFSGSGSRTDFTLTISSVEPEDFAVYYCLQSRTIPRTFGQGTKLEIKRLEGKPIPNPLLGLDSTGSGEDLKNVFPPEVAVFEPSKAEIAHTQKATLVCLATGFYPDHVELSWWVNGKEVHSGVCTDPQPLKEQPALNDSRYCLSSRLRVSATFWQNPRNHFRCQVQFYGLSENDEWTQDRAKPVTQIVSAEAWGRADCGITSASYHQGVLSATILYEILLGKATLYAVLVSALVLMAMVKRKDSRGRAKRSGSGATNFSLLKQAGDVEENPGPTSMDWIWRILFLVGAATGAHSFEQVQLVQSGPEVKKPGESVKISCKASGYTFRHYSMNWVKQAPGQGLKWMGRINTESGVPIYADDFKGRFSFTVDTSASTAYLEISSLTSEDTAVYFCSNDYLYSLDFWGQGTTLTVSSTREQKLISEEDGSGTPFPSLAPPIMLLVDGKQQMVVVCLVLDVAPPGLDSPIWFSAGNGSALDAFTYGPSPATDGTWTNLAHLSLPSEELASWEPLVCHTGPGAEGHSRSTQPMHLSGEASTARTCPQEPLRGTPGGALWLGVLRLLLFKLLLFDLLLTCSCLCDPAGPLPSPATTTRLRALGSHRLHPATETGGREATSSPRPQPRDRRWGDTPPGRKPGSPVRAKRSGSGVKQTLNFDLLKLAGDVESNPGPSRGHMTEYKPTVRLATRDDVPRAVRTLAAAFADYPATRHTVDPDRHIERVTELQELFLTRVGLDIGKVWVADDGAAVAVWTTPESVEAGAVFAEIGPRMAELSGSRLAAQQQMEGLLAPHRPKEPAWFLATVGVSPDHQGKGLGSAVVLPGVEAAERAGVPAFLETSAPRNLPFYERLGFTVTADVEVPEGPRTWCMTRKPGA | – | L363 (2+), U266 | (2+) | –
3 | 011317-B06 (protein) MALPVTALLLPLALLLHAARPLEQKLISEEDLGSGDRPDPAVYQLRDSKSSDKSVCLFTDFDSQTNVSQSKDSDVYITDKCVLDMRSMDFKSNSAVAWSNKSDFACANAFNNSIIPEDTFFPSPESSCDVKLVEKSFETDTNLNFQNLSVIGFRILLLKVAGFNLLMTLRLWSSSSRAKRSGSGVKQTLNFDLLKLAGDVESNPGPTSMALPVTALLLPLALLLHAARPDIVMTQSPATLSLSPGERATLSCRSSKSLQNVNGNTYLYWFQQKPGQSPQLLIYRMSNLNSGVPDRFSGSGSGTEFTLTISSLEPEDFAVYYCMQHLEYPITFGAGTKLEIKGGGGSGGGGSGGGGSEVQLVESGGGLVKPGGSLKLSCAASGYTFTSYVMHWVRQAPGKGLEWIGYINPYNDGTKYNEKFQGRVTISSDKSISTAYMELSSLRSEDTAMYYCARGTYYYGTRVFDYWGQGTLVTVSSTRGKPIPNPLLGLDSTGSGEDLKNVFPPEVAVFEPSEAEISHTQKATLVCLATGFYPDHVELSWWVNGKEVHSGVCTDPQPLKEQPALNDSRYCLSSRLRVSATFWQNPRNHFRCQVQFYGLSENDEWTQDRAKPVTQIVSAEAWGRADCGFTSESYQQGVLSATILYEILLGKATLYAVLVSALVLMAMVKRKDSRGRAKRSGSGATNFSLLKQAGDVEENPGPSRGHMTEYKPTVRLATRDDVPRAVRTLAAAFADYPATRHTVDPDRHIERVTELQELFLTRVGLDIGKVWVADDGAAVAVWTTPESVEAGAVFAEIGPRMAELSGSRLAAQQQMEGLLAPHRPKEPAWFLATVGVSPDHQGKGLGSAVVLPGVEAAERAGVPAFLETSAPRNLPFYERLGFTVTADVEVPEGPRTWCMTRKPGA | (2+) | – | – | –
4 | 010417-I04 (protein) MALPVTALLLPLALLLHAARPLEGKPIPNPLLGLDSTGSGEDLKNVFPPEVAVFEPSKAEIAHTQKATLVCLATGFYPDHVELSWWVNGKEVHSGVCTDPQPLKEQPALNDSRYCLSSRLRVSATFWQNPRNHFRCQVQFYGLSENDEWTQDRAKPVTQIVSAEAWGRADCGITSASYHQGVLSATILYEILLGKATLYAVLVSALVLMAMVKRKDSRGRAKRSGSGATNFSLLKQAGDVEENPGPTSMALPVTALLLPLALLLHAARPEIVLTQSPDFQSVTPKEKVTITCRASESVDTFGISFMNWFQQKPDQSPKLLIHAASNQGSGVPSRFSGSGSGTDFTLTINSLEAEDAATYYCQQSKEVPFTFGGGTKVEIKGGGGSGGGGSGGGGSEVQLVESGGGLVQPGGSLRLSCAASGFTFSSSWMNWVRQAPGKGLEWVGRIYPGDGDTNYNGKFKGRFTISRDDSKNSLYLQMNSLKTEDTAVYYCARSGFITTVLDFDYWGQGTLVTVSSTREQKLISEEDLGSGTPFPSLAPPIMLLVDGKQQMVVVCLVLDVAPPGLDSPIWFSAGNGSALDAFTYGPSPATDGTWTNLAHLSLPSEELASWEPLVCHTGPGAEGHSRSTQPMHLSGEASTARTCPQEPLRGTPGGALWLGVLRLLLFKLLLFDLLLTCSCLCDPAGPLPSPATTTRLRALGSHRLHPATETGGREATSSPRPQPRDRRWGDTPPGRKPGSPVRAKRSGSGVKQTLNFDLLKLAGDVESNPGPSRSRGHMTEYKPTVRLATRDDVPRAVRTLAAAFADYPATRHTVDPDRHIERVTELQELFLTRVGLDIGKVWVADDGAAVAVWTTPESVEAGAVFAEIGPRMAELSGSRLAAQQQMEGLLAPHRPKEPAWFLATVGVSPDHQGKGLGSAVVLPGVEAAERAGVPAFLETSAPRNLPFYERLGFTVTADVEVPEGPRTWCMTRKPGA | (+/−) | – | – | RAJI (+), NALM6
